Results published in publication PMC10001252.

Legend:
[1] = target: β-lactoglobulin (bovine) (UniProt P02754); assay: co-sedimentation + other: turbidity; LF-βLG mixtures (total 0.55 mM) prepared at 0, 100, 200 or 400 mM NaCl and desalted by dialysis (24 h) against 10 mM MES pH 5.5, room temperature; coacervate yield after centrifugation at 28,000 g and HPLC of the supernatant
[2] = target: β-lactoglobulin (bovine) (UniProt P02754); assay: ITC; LF (0.25 mM, syringe) injected into βLG (0.1 mM, cell); 10 mM MES pH 5.5, 15 mM added NaCl, 25 °C; fitted with PyTC
[3] = target: β-lactoglobulin (bovine) (UniProt P02754); assay: ITC; LF (0.25 mM, syringe) injected into βLG (0.1 mM, cell); 10 mM MES pH 5.5, 20 mM added NaCl, 25 °C; fitted with PyTC
[4] = target: β-lactoglobulin (bovine) (UniProt P02754); assay: ITC; LF (0.25 mM, syringe) injected into βLG (0.1 mM, cell); 10 mM MES pH 5.5, 2.5 mM added NaCl, 25 °C; fitted with PyTC
[5] = target: β-lactoglobulin (bovine) (UniProt P02754); assay: ITC; LF (0.25 mM, syringe) injected into βLG (0.1 mM, cell); 10 mM MES pH 5.5, no added NaCl, 25 °C; fitted with PyTC
[6] = target: β-lactoglobulin (bovine) (UniProt P02754); assay: ITC; LF (0.25 mM, syringe) injected into βLG (0.1 mM, cell); 10 mM MES pH 5.5, 5 mM added NaCl, 25 °C; fitted with PyTC

coacervate yield [1]: 55 to 65% | Ka [2]: 84700 M⁻¹ | dH [2]: -12.1 kcal/mol | Ka [3]: 33200 M⁻¹ | dH [3]: -8.94 kcal/mol | Ka [4]: 972000 M⁻¹ | dH [4]: -24.7 kcal/mol | Ka [5]: 421000 M⁻¹ | dH [5]: -18.8 kcal/mol | Ka [6]: 275000 M⁻¹ | dH [6]: -14.6 kcal/mol
Substance: lactoferrin (natural protein)
